B1: anti-mesothelin scFv-M8 (scFv)
scFv: DIQLTQSPSSLSASVGDRVTITCRASQSISSSLNWYQQKPGKAPKLLIYAASSLQSGVPSRFSGSGSGTDFTLTISSLQPEDFATYSCQQSYSTPLTFGGGTKVEIKGGGGSGGGGSGGGGSQVHLVESGGGVVQPGRSLRVSCAASGFTFSGYAMYWVRQAPGKGLEYVSAITTNGGSTNYADSVKGRFTISRDNSKNTLYLQMSSLRAGDTAVYYCARGAPGYRGYYMDVWGKGTTVTVSS
notes: On mRNA-electroporated T cells as CAR
B2: anti-mesothelin scFv-M13 (scFv)
scFv: AIRMTQSPSSLSASVGDRVTITCRASQGISNSLAWYQQKPGKAPKLLLYAASRLESGVPSRFSGSGSGTDYTLTISSLQPEDFATYYCQQYYSTPFTFGPGTKLEIKGGGGSGGGGSGGGGSQVQLVQSGAEVKKPGSSVKVSCKTSADTFSANTINWVRQAPGHGLEWMGRIIPSLNIRDYAQEFQGRVTFTADESTNTVYMQLTSLRSEDTAVYYCARDPGSTWSPNQFFPHWGQGTLVTVSS
notes: as for B1
B3: anti-mesothelin scFv-M15 (scFv)
scFv: DIQLTQSPSSLSASIGDRVTITCRASQGVNSALAWYQQKPGKPPNLLIYDASSLESGVPSRFSGSGSGRDFTLTISSLQPEDFATYYCQQFSSYPLTFGGGTKVDIKGGGGSGGGGSGGGGSQVQLVQSGAEVKKPGASVKVSCKASGYTFTSYYMHWVRQAPGQGLEWMGIINPSGGSTSYAQKFQGRVTMTRDTSTSTVYMELSSLRSEDTAVYYCARAQRGGSVYFDYWGQGTLVTVSS
notes: as for B1
B4: anti-mesothelin scFv-M37 (scFv)
scFv: DIVMTQTPSSLSASVGDRVTITCRASQGISNYLAWFQQKPGKAPKPLIYAASSLQSGVPSKFSGSGSGTDFTLTISNLQPEDFATYICQQYSSYPITFGQGTRLEIKGGGGSGGGGSGGGGSQLQLQESGPGLVKPSETLSLTCAVSGGSISPYYWTWIRQSPGKAMEWMGYIHYSGRTNYNPSLESRATFSVDTSKNQISLKLNSVTAADTAVYYCTKVGDPGLFDYWGPGTLVTVSS
notes: as for B1
B5: anti-mesothelin scFv-M7 (scFv)
scFv: DIRLTQSPSSLSASLGDRVTITCRASQAISSALAWYQQKPGKAPRLLIYDASTLESGVPSRFSGSGSGTDFTLTISSLQPEDFATYYCQQADSFPLTFGGGTKLEIKGGGGSGGGGSGGGGSQVQLVQSGAEVKKSGESLKISCKGSGYGFGAYWIAWVRQMPGKGLEWMGIIYPGDSRVIYSPYFQGQVTISADKSISTAYLQWSSLKASDTAMYYCARFGGPKFATNWFDIWGQGTTVTVSS
notes: as for B1
B6: M18 (scFv)
chain 1: QVQLVQSGGGLVQPGGSLRLSCAASGFTFSSYWMHWVRQAPGKGLVWVSRINSDGSSTSYADSVKGRFTISRDNAKNTLYLQMNSLRAEDTAVYYCVRTGWVGSYYYYMDVWGKGTTVTVSS
chain 2: EIVLTQSPGTLSLSPGERATLSCRASQSVSSNYLAWYQQKPGQPPRLLIYDVSTRATGIPARFSGGGSGTDFTLTISSLEPEDFAVYYCQQRSNWPPWTFGQGTKVEIK
B7: anti-mesothelin scFv-M6 (scFv)
scFv: EIVMTQSPATLSLSPGERATLSCRASQSIGNSLAWYQQKPGQAPRLLIYDVSNRATGIPARFSGSGSGTDFTLTISSLEPEDFAVYYCQHRYSWPLTFGGGTKVEIKGGGGSGGGGSGGGGSQVQLVQSGGGLVKPGGSLRLSCAASGFTFSDYYMSWIRQAPGKGLEWVSYISSSGSTIYYADSVKGRFTISRDNAKNSLYLQMNSLRAEDTAVYYCARDGYRTHNWFDPWGQGTLVTVSS
notes: as for B1

How the values were obtained:
[1] = target: T1, mesothelin-Fc recombinant protein (human, UniProt Q13421 296-580, limits assumed); test: flow cytometry, T cells with CAR mRNA, mesothelin-Fc + PE-anti-IgG-Fc; Control 0.63
T1 construct: construct not described; also called Meso-Fc; not shown: Fc part
T1 sequence (Q13421 other isoform, or with tags, fused parts or gaps limits assumed): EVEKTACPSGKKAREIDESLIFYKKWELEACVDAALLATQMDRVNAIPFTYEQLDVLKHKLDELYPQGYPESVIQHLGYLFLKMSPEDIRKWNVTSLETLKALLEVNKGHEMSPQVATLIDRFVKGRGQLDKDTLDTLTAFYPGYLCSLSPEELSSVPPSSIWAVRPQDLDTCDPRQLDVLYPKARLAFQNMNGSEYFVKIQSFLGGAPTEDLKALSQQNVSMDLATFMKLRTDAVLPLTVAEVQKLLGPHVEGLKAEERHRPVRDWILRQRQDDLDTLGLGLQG
Description: (§1) Mesothelin CAR mRNA obtained in Example 26 above was introduced into A549 tumor cells and T cells by electroporation, and the procedures are as follows: A549 tumor cells and T cells were collected and washed 3 times with the Opti-MEM medium. The cell pellet was resuspended in the Opti-MEM medium and the cell concentration was adjusted to 1×10e7 cells/mL. 10 μg of RNA was aliquoted into 1.5-mL EP tubes, 100 μL of T cells or A549 cells were added, followed by mixing well. 100 μL of cells mixed with RNA were added to the BTX electroporation cuvette and slight tapping was performed to avoid air bubbles. Electroporation was performed using a BTX instrument under the following parameters: for T cells: 500 V voltage, 0.7 ms; for A549 tumor cells: 300 V voltage, 0.5 ms. The cells were then transferred to a pre-warmed medium and cultured at 37° C. The binding of mesothelin CART cells to the mesothelin-Fc recombinant protein was determined by FACS staining. […] T cells without CAR molecules served as the control (“Mock”).

[2] = target: T1, mesothelin-Fc recombinant protein; test: flow cytometry, T cells with CAR mRNA, mesothelin-Fc + PE-anti-IgG-Fc; Control 0.97
Description: as §1

Binder	percent of cells in the gate [1]	percent of cells in the gate [2]
B1	80.8%	
B2	71.1%	
B3	48.8%	
B4		74.2%
B5	36.3%	
B6	9.53%	
B7	83.4%	
